The values below come from publication PMC12132310.

Test [1] addresses SUZ12-3XFLAG PRC2.2mut (loss-of-PRC2.2 mutant, F99A, R103A, L105A, I106A) (human (edited endogenous locus in WTC-11 hiPSCs)), Q15022. Description: affinity purification with mass spectrometry. As to conditions: remark: other sources report otherwise.
Test [2] deals with SUZ12-3XFLAG PRC2.1mut (loss-of-PRC2.1 mutant, (338–353)-to-GSGSGS) (human (edited endogenous locus in WTC-11 hiPSCs)), Q15022. Description: affinity purification with mass spectrometry. The note with it: remark: other sources report otherwise.

B1: JARID2 (endogenous, hiPSCs), Q92833 1-1246 (natural protein)
chain: MSKERPKRNIIQKKYDDSDGIPWSEERVVRKVLYLSLKEFKNSQKRQHAEGIAGSLKTVNGLLGNDQSKGLGPASEQSENEKDDASQVSSTSNDVSSSDFEEGPSRKRPRLQAQRKFAQSQPNSPSTTPVKIVEPLLPPPATQISDLSKRKPKTEDFLTFLCLRGSPALPNSMVYFGSSQDEEEVEEEDDETEDVKTATNNASSSCQSTPRKGKTHKHVHNGHVFNGSSRSTREKEPVQKHKSKEATPAKEKHSDHRADSRREQASANHPAAAPSTGSSAKGLAATHHHPPLHRSAQDLRKQVSKVNGVTRMSSLGAGVTSAKKMREVRPSPSKTVKYTATVTKGAVTYTKAKRELVKDTKPNHHKPSSAVNHTISGKTESSNAKTRKQVLSLGGASKSTGPAVNGLKVSGRLNPKSCTKEVGGRQLREGLQLREGLRNSKRRLEEAHQAEKPQSPPKKMKGAAGPAEGPGKKAPAERGLLNGHVKKEVPERSLERNRPKRATAGKSTPGRQAHGKADSASCENRSTSQPESVHKPQDSGKAEKGGGKAGWAAMDEIPVLRPSAKEFHDPLIYIESVRAQVEKFGMCRVIPPPDWRPECKLNDEMRFVTQIQHIHKLGRRWGPNVQRLACIKKHLKSQGITMDELPLIGGCELDLACFFRLINEMGGMQQVTDLKKWNKLADMLRIPRTAQDRLAKLQEAYCQYLLSYDSLSPEEHRRLEKEVLMEKEILEKRKGPLEGHTENDHHKFHPLPRFEPKNGLIHGVAPRNGFRSKLKEVGQAQLKTGRRRLFAQEKEVVKEEEEDKGVLNDFHKCIYKGRSVSLTTFYRTARNIMSMCFSKEPAPAEIEQEYWRLVEEKDCHVAVHCGKVDTNTHGSGFPVGKSEPFSRHGWNLTVLPNNTGSILRHLGAVPGVTIPWLNIGMVFSTSCWSRDQNHLPYIDYLHTGADCIWYCIPAEEENKLEDVVHTLLQANGTPGLQMLESNVMISPEVLCKEGIKVHRTVQQSGQFVVCFPGSFVSKVCCGYSVSETVHFATTQWTSMGFETAKEMKRRHIAKPFSMEKLLYQIAQAEAKKENGPTLSTISALLDELRDTELRQRRQLFEAGLHSSARYGSHDGSSTVADGKKKPRKWLQLETSERRCQICQHLCYLSMVVQENENVVFCLECALRHVEKQKSCRGLKLMYRYDEEQIISLVNQICGKVSGKNGSIENCLSKPTPKRGPRKRATVDVPPSRLSASSSSKSASSSS
Turning to B1, in test [1], the fold less enriched than with WT SUZ12 turned out to be 13 fold.

B2: EPOP, A6NHQ4 1-379 (natural protein)
chain: METLCPAPRLAVPASPRGSPCSPTPRKPCRGTQEFSPLCLRALAFCALAKPRASSLGPGPGELAARSPVLRGPQAPLRPGGWAPDGLKHLWAPTGRPGVPNTAAGEDADVAACPRRGEEEEGGGGFPHFGVRSCAPPGRCPAPPHPRESTTSFASAPPRPAPGLEPQRGPAASPPQEPSSRPPSPPAGLSTEPAGPGTAPRPFLPGQPAEVDGNPPPAAPEAPAASPSTASPAPAAPGDLRQEHFDRLIRRSKLWCYAKGFALDTPSLRRGPERPPAKGPARGAAKKRRLPAPPPRTAQPRRPAPTLPTTSTFSLLNCFPCPPALVVGEDGDLKPASSLRLQGDSKPPPAHPLWRWQMGGPAVPEPPGLKFWGINMDES
B2 displayed a fold less enriched than with WT SUZ12 in test [2] of 48 fold.

B3: MTF2 (endogenous, hiPSCs), Q9Y483 1-593 (natural protein)
chain: MRDSTGAGNSLVHKRSPLRRNQKTPTSLTKLSLQDGHKAKKPACKFEEGQDVLARWSDGLFYLGTIKKINILKQSCFIIFEDSSKSWVLWKDIQTGATGSGEMVCTICQEEYSEAPNEMVICDKCGQGYHQLCHTPHIDSSVIDSDEKWLCRQCVFATTTKRGGALKKGPNAKALQVMKQTLPYSVADLEWDAGHKTNVQQCYCYCGGPGDWYLKMLQCCKCKQWFHEACVQCLQKPMLFGDRFYTFICSVCSSGPEYLKRLPLQWVDIAHLCLYNLSVIHKKKYFDSELELMTYINENWDRLHPGELADTPKSERYEHVLEALNDYKTMFMSGKEIKKKKHLFGLRIRVPPVPPNVAFKAEKEPEGTSHEFKIKGRKASKPISDSREVSNGIEKKGKKKSVGRPPGPYTRKMIQKTAEPLLDKESISENPTLDLPCSIGRTEGTAHSSNTSDVDFTGASSAKETTSSSISRHYGLSDSRKRTRTGRSWPAAIPHLRRRRGRLPRRALQTQNSEIVKDDEGKEDYQFDELNTEILNNLADQELQLNHLKNSITSYFGAAGRIACGEKYRVLARRVTLDGKVQYLVEWEGATAS
In test [2], B3 showed a fold less enriched than with WT SUZ12 of 35 fold.
